Data: patent US20260265348A1

Target: recombinant HSV-2G glycoprotein B (gB) ectodomain (aa 22-724), trimeric (HSV-2 strain G)
Assay: bio-layer interferometry (Octet), dilution series on HSV-2 recombinant gB

B1: HDIT102(H4), fully human IgG1 anti-HSV gB antibody (antibody, V domains shown)
VH: EVQLVQSGAEVKTPGASVRVSCKASGHTFRTFDINWVRQAAGQGLEWMGWMSPNSGNTGYARQFQGRVTMTRNISANTAYMELRGLRFDDTAVYYCARGPGSTGTTGSMDVWGQGTTVTVSS
VL: QAGLTQPPSVSVAPGKTARISCGGNNIGSKSVHWYQQKPGQAPVLVIYYDSDRPSGIPERFSGSNSGNTATLTISRVEAGDEADYYCQVWDSGSVVFGGGTKLTVLG
- Kd: < 1 pM
- koff: < 1e-07 s⁻¹
- kon: 727000 M⁻¹ s⁻¹
